Measured values: publication PMC9261887

Target: Human angiotensin-converting enzyme 2 ectodomain (amino acids 20-613) with C-terminal E5 coil tag, p (human) (UniProt Q9BYF1)
Assay: SPR

Sequence of Human angiotensin-converting enzyme 2 ectodomain (amino acids 20-613) with C-terminal E5 coil tag, p (human) (Q9BYF1 20-613): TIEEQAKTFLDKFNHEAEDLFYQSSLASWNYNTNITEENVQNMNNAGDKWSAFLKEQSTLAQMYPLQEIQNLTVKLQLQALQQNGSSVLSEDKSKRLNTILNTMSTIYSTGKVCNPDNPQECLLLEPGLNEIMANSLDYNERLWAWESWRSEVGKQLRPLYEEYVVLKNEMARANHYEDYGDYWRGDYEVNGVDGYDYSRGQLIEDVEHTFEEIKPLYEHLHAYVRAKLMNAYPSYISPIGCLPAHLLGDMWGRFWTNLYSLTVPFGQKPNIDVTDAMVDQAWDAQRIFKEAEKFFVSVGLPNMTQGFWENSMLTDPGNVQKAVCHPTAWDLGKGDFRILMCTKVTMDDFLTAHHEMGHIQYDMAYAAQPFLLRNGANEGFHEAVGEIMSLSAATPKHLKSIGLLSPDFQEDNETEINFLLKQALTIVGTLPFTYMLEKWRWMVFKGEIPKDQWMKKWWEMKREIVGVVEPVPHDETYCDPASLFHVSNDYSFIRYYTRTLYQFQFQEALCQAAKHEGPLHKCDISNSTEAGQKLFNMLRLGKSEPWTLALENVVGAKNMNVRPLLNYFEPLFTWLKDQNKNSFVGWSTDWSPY

Row | Substance | dH [kcal/mol]
1 | SARS-CoV-2 spike protein receptor binding domain (RBD 319-541), Delta B.1.617.2 (from UniProt P0DTC2 319-541) (domain or fragment) | -10.9
2 | SARS-CoV-2 spike protein receptor binding domain (RBD 319-541), Omicron B.1.1.529 (from UniProt P0DTC2 319-541) (domain or fragment) | -17
3 | SARS-CoV-2 spike protein receptor binding domain (RBD 319-541), Alpha B.1.1.7 (from UniProt P0DTC2 319-541) (domain or fragment) | -17.4
4 | SARS-CoV-2 spike protein receptor binding domain (RBD 319-541), Kappa B.1.617.1 (from UniProt P0DTC2 319-541) (domain or fragment) | -9.56
5 | SARS-CoV-2 spike protein receptor binding domain (RBD 319-541), Beta B.1.351 (from UniProt P0DTC2 319-541) (domain or fragment) | -15.3
